Source: patent US20090305961

Test system: plasminogen

“human low molecular weight urokinase-plasminogen activator (LMW-u-PA)” was tested, and the “amidolytic activity, chromogenic substrates Chromozyme U and S-2251, absorbance at 405 nm” value was “Cells transfected with pLMW-u-PA showed much higher levels of u-PA activity compared to cells transfected with pSPUC1A”.
